The record followed here is the supplement of paper PMC9732359.

A short description of this series: protein stability index of a GFP-peptide fusion (yeast GPS) (PSI 1-4); higher = more stable; sorted into four equal gates, so the index is relative within each strain. In outline: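 Plasmids in a pooled yeast library fused tiled 17-residue yeast protein peptides downstream of GFP and also expressed Cherry. Mid-log cultures grown without leucine were sorted into four equal gates by GFP/Cherry fluorescence ratio. Each gate's plasmids were PCR-amplified and Illumina-sequenced, and reads were matched to strains by barcodes. The protein stability index is derived by multiplying each gate's read frequency by its gate number and summing the results.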

± gives the uncertainty stated by the source.

With TIERSLIEEEVEQDEGQ [YCS4], the protein stability index runs as follows: (doa10∆) 3.36 ± 0.24; (pdr5∆) 3.27 ± 0.17; (san1∆) 3.28 ± 0.084; (ubr1∆) 3.5 ± 0.17.
Sequence TIKDLVGGKSTVQNEIL [FAS2] showed a protein stability index (doa10∆) of 3.03 ± 0.073, a protein stability index (pdr5∆) of 2.92 ± 0.1, a protein stability index (san1∆) of 2.21 ± 0.1 and a protein stability index (ubr1∆) of 3.24 ± 0.11.
On to TISKESTPDQRKRVYNI [ESC2], for which the protein stability index runs as follows: (doa10∆) 2.92 ± 0.15; (pdr5∆) 3.16 ± 0.24; (san1∆) 3.11 ± 0.17; (ubr1∆) 3.01 ± 0.099.
For TITIKSYHLWPSFTDEQ [PRP8] the same measures were 2.32 ± 0.057, 2.81 ± 0.061, 2.41 ± 0.073 and 2.51 ± 0.047.
TIVGVKFNNGVVIAADT [PUP1] had a protein stability index (doa10∆) of 1.43 ± 0.072, a protein stability index (pdr5∆) of 2.55 ± 0.14 and a protein stability index (ubr1∆) of 2.55 ± 0.17.
Consider TKAVEFSMGHIRSSSVS [MED4], for which the protein stability index worked out at 3.26 ± 0.12 (doa10∆), 3.38 ± 0.093 (pdr5∆), 3.18 ± 0.078 (san1∆) and 2.99 ± 0.078 (ubr1∆).
For TKEMDEVEEDDEDDDQP [SWI3], the protein stability index reads like this: (doa10∆) 3.39 ± 0.12; (pdr5∆) 3.49 ± 0.068; (san1∆) 3.48 ± 0.056; (ubr1∆) 3.27 ± 0.066.
Regarding TKFNHNKEKSNSPTSFF [YOR098C/NUP1], the protein stability index was 2.78 ± 0.069 (doa10∆), 2.85 ± 0.066 (pdr5∆), 2.66 ± 0.048 (san1∆) and 2.53 ± 0.051 (ubr1∆).
On to TKFSNPAIPPVIDLEKI [BRR2], for which the protein stability index runs as follows: (doa10∆) 2.57 ± 0.068; (pdr5∆) 2.75 ± 0.068; (san1∆) 2.66 ± 0.063; (ubr1∆) 2.65 ± 0.052.
Sequence TKIDMPIKNRKNDTHYL [BRN1] had a protein stability index (doa10∆) of 3.04 ± 0.07, a protein stability index (pdr5∆) of 3.05 ± 0.075, a protein stability index (san1∆) of 2.93 ± 0.055 and a protein stability index (ubr1∆) of 2.94 ± 0.053.
On the same counts, the results for TKIKDAEEDSLLSGEDL [YJL039C/NUP192] are 3.35 ± 0.16, 3.45 ± 0.086, 3.14 ± 0.16 and 3.38 ± 0.12.
With TKKKSKFMTNSTAFVPT [ARP9], the protein stability index is, setting by setting: (doa10∆) 2.65 ± 0.054; (pdr5∆) 2.79 ± 0.045; (san1∆) 2.47 ± 0.058; (ubr1∆) 2.77 ± 0.038.
Consider TKLDQVWGSETVASSKV [RPL4A], for which the protein stability index runs as follows: (doa10∆) 2.72 ± 0.075; (pdr5∆) 3 ± 0.1; (san1∆) 2.84 ± 0.05; (ubr1∆) 2.98 ± 0.044.
With TKLGFTFTIKEFVSYYY [SNU114], the protein stability index (doa10∆) was 1.88 ± 0.054, the protein stability index (pdr5∆) was determined as 2.02 ± 0.054, the protein stability index (san1∆) amounted to 1.73 ± 0.067 and the protein stability index (ubr1∆) was found to be 1.76 ± 0.041.
For TKLIGVLILLHAERDLA [SRP68] the same measures were 1.28 ± 0.078, 2.26 ± 0.17, 2.48 ± 0.088 and 2.78 ± 0.098.
For TKPFENVEKYPTFVEFI [SNU114] the same measures were 2.7 ± 0.23, 3.02 ± 0.1, 2.87 ± 0.11 and 2.86 ± 0.11.
TKQIQSVRIDGRKVLQK [SIR4]: the protein stability index by setting is: (doa10∆) 2.32 ± 0.06; (pdr5∆) 2.48 ± 0.055; (san1∆) 2.03 ± 0.069; (ubr1∆) 2.02 ± 0.04.
The sequence TKRQKHFAWLPTHIWNA [POP1] came in with a protein stability index (doa10∆) of 2.03 ± 0.031, a protein stability index (pdr5∆) of 1.82 ± 0.036, a protein stability index (san1∆) of 1.55 ± 0.05 and a protein stability index (ubr1∆) of 1.74 ± 0.021.
For TKRVEKPQLKFKSPIDN [RRP6], the protein stability index reads like this: (doa10∆) 2.88 ± 0.052; (pdr5∆) 3.03 ± 0.061; (san1∆) 3.02 ± 0.039; (ubr1∆) 3.137 ± 0.03.
Consider TKSKEQLASQLVDLKKE [RPL35A], for which the protein stability index was found to be 3.12 ± 0.098 (san1∆) and 3.2 ± 0.17 (ubr1∆).
With TKVLNMKPSEILSLIEE [SMC2], the protein stability index is 2.86 ± 0.23 (doa10∆), 3.3 ± 0.17 (pdr5∆), 3 ± 0.24 (san1∆) and 2.9 ± 0.11 (ubr1∆).
In the case of TKVNNQLIKVAVHNGGR [RPL9A], the protein stability index is, setting by setting: (doa10∆) 1.92 ± 0.074; (pdr5∆) 1.52 ± 0.06; (san1∆) 1.78 ± 0.086; (ubr1∆) 2.4 ± 0.029.
With TLDDLVTKWTNQLTESA [YJL041W/NSP1], the protein stability index (doa10∆) came to 2.76 ± 0.1, the protein stability index (pdr5∆) was 3 ± 0.099, the protein stability index (san1∆) came to 2.85 ± 0.076 and the protein stability index (ubr1∆) worked out at 3.05 ± 0.061.
Take TLILIQNPENLLSEKIL [SIR3]: the protein stability index by setting is: (doa10∆) 2.98 ± 0.062; (pdr5∆) 2.88 ± 0.07; (san1∆) 2.87 ± 0.046; (ubr1∆) 3.16 ± 0.06.
On the same counts, the results for TLKIHLKKFLQEKMDPN [IRR1] are 2.86 ± 0.1, 3.01 ± 0.08, 3.08 ± 0.084 and 2.82 ± 0.099.
For TLKKNNVAVDIINFGEI [RPN10] the same measures were 2.97 ± 0.081, 3.01 ± 0.092, 3.02 ± 0.1 and 2.74 ± 0.063.
